experiment: yeast display, Sf9 membrane polyspecificity reagent, FACS + sequencing; frameworks hold sequencing errors
In short: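 Nanobodies came from a synthetic yeast display library in Saccharomyces cerevisiae BJ5465, induced with galactose for 36–48 hours and stained for 1 hour at 4 °C with 10% biotinylated, detergent-solubilized Sf9 membrane reagent. Cells were enriched on streptavidin microbeads and then FACS-sorted, with low and high (top ~1%) gates set on anti-HA fluorescence for expression and streptavidin fluorescence for reagent binding. Each polyreactivity label reflects the gate a clone came from. Genes were amplified by colony PCR, sequenced by MiSeq 2 × 250 and filtered by CDR length.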

Sequence	polyreactivity (PSR sort gate)
QVQLVESGGGLVQAGGSLRLSCAASGRIFGAYAMGWYRPAPGKERELVAAISARGGRTYYADSVKGRFTISRDNAKNTVYLQMNSLKPEDTAVYYCAKTLRDPYRYDYWGQGTQVTVSS	high polyreactivity
QVQLVESGGGLVQAGGSLRLSCAASGSIFVWNAMGWYRQAPGKERELVAAITNICGRTYYADSVKGRFTISRDNAKNTVYLQMNSLKPEDTAVYYCNTDRVSRLGWSTTSDSWGQGTQVTVSS	high polyreactivity
QVQLVESGGGLVQAGGSLRLSCAASGITFAYYAMGWYRQAPGKERELVAAISRSGGGTYYADSVKGRFTISRDNAKNTVYLQMNSLKPEDTAVYYCNKDYPYYNSGPWAYKFDYWGQGTQVTVSS	high polyreactivity
QVQLVDSGGGLVQAGGSLRLSCAASGFTFVYYFMGWYRQAPGKERELVAAITRSCRTYYADSVKGRFTISRDNAKNTVYLQMNSLKPEDTAVYYCARGYGYADHAMGYWGQGTQVTVSS	high polyreactivity
QVQLVESGGGLVQAGGSLRLSCAASGRNLYYNAMGWYRHAPGKERELVAAITFRGGSTSYADSVKGRFTISRDNAKNTVYLQMNSLKPEDTAVYYCAAGYTWRQSWYPFDYWGQGTQVTVSS	high polyreactivity
QVQLEESGGGLVQAGGSLRLSCAASGSTFYYNAMGWYRQAPGKEREFVARISRSGGSTYADSVKGRFTISRDNAKNTVYLQMNSLKPEDTGVYYCNADAYGTPEFTSYAVRYDYWGQGTQVTVSS	low polyreactivity
QVQLVESGGGLVQAGGSLRLSCAASGSTFIYYAMGWYRQAPGKEWELVAAITSAGRTNYADSVKGRFTISLDNAKHTVYLQMNSLKPEDTAVYYCAAAYRPRKHHYDYWGQGTQVTVSS	high polyreactivity
QVELVESGGGLVQAGGILRLSCAASGSTFSIYAMGWYRQGPGKERELVAAISGDGITKYADSVKGRFTISRDNAKNTVYLQMNSLKPEDTAVYYCNAHELTDDGKMDSWGQGTQVTVSS	low polyreactivity
QVQLVESGGGLDQAGGSLRLSCAASGFIFGVSVMGWYRPAPGKERELVAAMSGRGGSTFYADSVKGRFTISRDNAKNTVYLQMNSLKPEDTAVYYCAAKSTGPSMDYWGQGTQVTVSS	high polyreactivity
QVQLVESGGGLVQAGGSLRLICAASGRTFSFYARVWYRQAPGKETEFVAAITGSGGSTYYADSVKGRFTISRDNAKNTVYLKMNSLKPEDTAVYYCAKRSAWHTYRYGYWGQGTQVTVSS	high polyreactivity
QVQLVESGGGLVQAGGSLRLSCAASGSIFYSYAMGGYRQAPGKERELVAAITDSGDSTYYADSVKGRFTISRDNAKNTVYLQMNSLKPEDTAVYYCAAGFYPYYYWGQGTQVTVSS	low polyreactivity
QVQLVESGGGLVQAGGSLLLSCAGTARNFTYNAMGWYRQAPGKERELVARITSGGNTNYADSVKGRFTISRDNAKNTVYLQMNSLKPEDTAVYYGATGLFWFTNRYGSWGQGTQVTVSS	low polyreactivity
QVQLVESGGGLVQAGGSLRLSCAASGIIFEGYAMGWYRQAPGKERELVAAISQSGGSTRYADSVKGRFTISRDNAKNTVYLQMNSLKPEDTAVYYCAKEVWNWGPYYYWGQGTQVTVSS	low polyreactivity
QVQLVESGGGLVQAGGSLRLSCAASGLTFSYYTMGWYRPAPGKERELVAAITSSSGRTYYADSVKGRFSISRDNAKNTVYLQLNSLKPEDTAVYYCAADRWYREYDYWGLGTQVTVSS	low polyreactivity
QVQLVESGGRLVQAGGSLSLSCAASGRTFGGYNMGWYRQAPGKERELVAAINWSGTTYYADSVKGRFTISRDNAKNTVYLQMNSLKPVDTAVYYCAASLVSYYGLARDSVDYWGQGTQVTVSS	low polyreactivity
QVQLVESGGGLVQAGGSLRLSCAASGFTFNRYVMGWYRQAPGKERELVAAIDSGDSTYYADSVKGRFTISRDNAKNTVYLQMNSLKPEDTAVFYCAAEFKSKFFSDIFDNDYDYWGQGTQVSVSS	high polyreactivity
QVQLVESGGGLVQAGGSLRLSCAASGRTFRWYPMGWYRHAPGKEREFVARITWSGGRTYYADSVKGRFTISRDNAKNTVYLQMNSLKPEDTADYYCAAYFVGRYRLEYWGQGTQVTVSS	high polyreactivity
QVQLVESGGGLVQAGGSLRLSCAASGSTFGGYVMGWYRQAPGKERELVAAIRRVGRTYYADSVKGRFTISRDNAKNTVYLQMNSLKPEDTAVYYCAKDNWVNYDDSHDSWGQGTQVTVSS	low polyreactivity
QVQLVESGGGLVQAGGSLRLSCASSGGTFGSYAMGWYRHAPGKERELVAAIRSGDRTYYADSVKGRFTISRDNAKNTVYLQMNSLKPEDTAVYYCAAFYHHYYRYDYWGQGTQVTVSS	low polyreactivity
QVQLVESGGGLVQAGGSLRLSCAASGIIFSDYAMGWYRQAPGKERELVATITRSVRTSYADSVKGRFTISRDNAKNTVYLQMNSLKPEDTAVYYCNADFVGAVIAYDYLGQGTQVTVSS	low polyreactivity
QVQLVESGGGLVQAGGSLRLSCAASGSIFLKYAMCLYRQAPGKERELVAAMSFSGGGTYYADSVKGRFTISRDNAKNTVYLQMNSLKPEDTAVYYCAADKIVYVRSNWYWGFDYWGQGTQVTVSS	low polyreactivity

Sequence	polyreactivity (PSR sort gate)
QVQLQESGGGLVQAGGSLRLSCAASGTISPLPAMGWYRQAPGKEREFVAGIDTGAITNYADSVKGRFTISRDNAKNTVYLQMNSLKPEDTAVYYCAVFPAAYDYDERYYTYWGQGTQVTVSS	low polyreactivity
QVQLVESGGGLVQAGGSLRLSCAASGSIFSHNAMGWYRQAPGKERELVAAISWSAASTYYADSVKGRFTISRDNAKNTVYLQMNSLKPEDTAVYYCAAVPYSSTYRYDYWGQGTQVTVSS	low polyreactivity
QVQLLESGGGLVQAGGTLRLSCAASGSTFAKYGMGWYRQAPGKERELVAAISRSGGRTYYADSVKGRFTISRDNAKNTVYLQMNSLKPEDTAVYYCATDGIRLTRHRDYDYWGQGTQVTVSS	low polyreactivity
QVQLVESGGGLVQAGGSLRLSCAASGSIFRRYAMGWYRQAPGKEREFVAAITRSGGGTYYADSVKGRFTISRDNAKNTVYLQMNSLKPEDSAVYYCAKDVFVQRSRYPEGDYWGQGTQVTVSS	high polyreactivity
QVQLVESGGGLVQAGGSLRLSCAASGSIFYANDMGWYRQAPGKERELVADITSDSTYYADSVKGRFTISRDNAKNTVYLQMNSLKPEDTAVYYCAADVYGVHAPQSDYWTKYDYWGQGTQVTVSS	low polyreactivity
QVQLVESGGGLVQAGGSLRLICAASGFIFGGYAMGWYRQAHGKERELVAAISSSGGSTYYADSVKGRFTISRDNAKNTVYLQMNSLKPEDTAVYYCAADRYYYRGRYYGYTREFDYWGQGTQVTVSS	high polyreactivity
QVQLVESGGGLVQAGGSLRLSCAASGFTFSINAMGWYRQAPGKERELVASITWSGGRTYYADSVKGRFTISRDNAKNTVYLQMNSLKPEDTAVYYCAARSYGTSTYDYWGQGTQETVSS	high polyreactivity
QVQLVETGGGLVQAGGRLRLSCAASGRIFVYYDMGWSIQAPGKERELVAAITSGGDRTYYADSVKGRFTISRDNAKNTVYLQMNSLKPEDTAVYYCNTYYYPYGYWGQGTQVTVSS	high polyreactivity
QVQLVESGGGLVQAGGSLSLSCAASGSTFYNYAMGWYRQAPGKERELVASITWNGGSTYYADSVKGRFTISRDNAKNTVYLQMNSLKPEDTAVYYCAADWTWTYPYDYWGQGTQVTVSS	low polyreactivity
QVQLVESGVGLVQAGGSLRLSCASSGITFPSYTMGWYRQAPGKERELVATIRNGGSTYYADSVKGRFTISRDNAKNTVYLQMNSLKPEDTAVYYCAAVPLWDYKFFYYLLYDYWGQGTQVTVSS	low polyreactivity
QVQLVESGGGLVQAGGSLRLSCAASGITFIVKTMGWYRQAPGKEREFVATISANSDGTYYADSVKGRFTISRDNAKNTVYLQMNSLKPEDTAVYYWGQGTQVTVSS	low polyreactivity
QVQLQESGGGLVQAGGSLRLSCAASGYISTFSSEMGWYRQAPGKERELVASIAPGCTTSYADSVKGRFTISRDNAKNTVYLQMNSLKPEDTAVYYCAVGNGLSRYVYGDYDYWGQGTQVTVSS	high polyreactivity
QVQLVESGGGLVQAGGSLRLSCAASGFTFQYYAMGWYRQAPGKERELVAAISRSGGSTYYADSVKGRFTISRDNAKNTVYLQMNSLKPEDTAVYYCAKDRVGARRTDYDYWGQGTQVTVSS	high polyreactivity
QVQRVESGGGLVQAGGSLRLSCAASGLTFRRYGMGWYRQAPGKEREWVASISSRGGNTYYADSVKGRLTISRDKAKNTVYLQMNSRKPEETAVYYCAARHVLYGYYLYDYWGQGTQVTVSS	high polyreactivity
QVQLVESGGGLVQAGGSLRLSCAASGFTFPGYAMGWYRQAPGKERELVAAISKRGGSTYYADSVKGRFTISRDNAKNTVYLQMNSLKPEDTAVYYCAKSRRGSFYYPYTYTKSGYEYWGQGTQVTVSS	high polyreactivity
QVQLVESGGRLVQAGGSLRLSCAASGSIFSKYTMGWYRQAPGKERELVAAISRAGSTYYADSVKGRFTISRDNAKNTVYLQMNSLKPEDTAVYYCNARYRGVYPLIGNRRDYYYWGQGTQVTVSS	high polyreactivity
QVQLVESGGGLVQAGGILRLSCADSGRTFWYYAMGWYRQAHGKERELVAAITRGGRTNYADSVKGRFTISRDNAKNTVYLQMNSLKPEDTAVYYCAADYRYPAHSYGYWGQGTQVTVSS	high polyreactivity
QVQLVESGGGLVQAGGSLRLSCAASGSIFNTYAMGWYRQAPGKERELVAAISRSGDSTYYADSVKGRFTISRDNAKNTVYLQMNSLKPEDTAVYYCATGRTDHGYYYWGQGTQVTVSS	high polyreactivity
QVQLVESGGGLVQAGGSLRLSCAASGGIIAINAMGWYRQAPGKERELVAAISWGDGITYYADSVKGRFTISRDNAKNTVDLQMNSLKPEDTAVYYCNARLLSGPGYDYWGQGTQVTVSS	low polyreactivity
QVQLVESGGGLVQAGGSLRLSCAASGRIFGYYAMGWYRQAPGKERELVAAISYSTGGTSTYADSVKGRFTISRDNAKNTVYLQMNSLKPDDTAVYYCAKRIFTSARLNYWGQGTQVTVSS	high polyreactivity

From the nanobody polyreactivity screen of Harvey et al. (2022)
